Source: patent publication US9243044B2, “Anticoagulant polypeptide and applications thereof” (GUANGDONG MEDICAL COLLEGE, priority 2011, dated 2016)

B1: NAPTin-9 (protein)
chain: NPSCGENERHDECSRKECDPKCKYDGTEEKDDEKPVVCLTRVCYGDCICRDGFLRNKNGACVKAEDCELDNMEFI
modifications: Sequence derived from Ancylostoma caninum or Synthetic
B2: NAPTin-2 (protein)
chain: NPSCGENERHDECSRKECDPKCKYDGTEEKDDEKPVVCLTRVCYGDCICRDGFLRNKNGACVKAEDCELDN
modifications: Sequence derived from Ancylostoma caninum or Synthetic
B3: NAPTin-4 (protein)
chain: NPSCGENERHDECSRKECDPKCKYDGTEEKDDEKPVVCLTRVCYGDCICRDGFLRNKNGACVKAEDCELDNME
modifications: Sequence derived from Ancylostoma caninum or Synthetic
B4: NAPTin-6 (protein)
chain: NPSCGENERHDECSRKECDPKCKYDGTEEKDDEKPVVCLTRVCYGDCICRDGFLRNKNGACVKAEDCE
modifications: Sequence derived from Ancylostoma caninum or Synthetic
B5: NAPTin-8 (protein)
chain: NPSCGENERHDECSRKECDPKCKYDGTEEKDDEKPVVCLTRVCYGDCICRDGFLRNKNGACVKAEDCELDNMEF
modifications: Sequence derived from Ancylostoma caninum or Synthetic

What was measured:
Type in all cases: biochemical
normal human plasma [1] = test: aPTT assay in normal human plasma; conditions: for prolongation of aPTT (in words): 100 nM and 500 nM; for aPTT: normal human plasma; for multiples of prolonging aPTT: ratio of mean aPTT to blank control
Procedure: (§1) The recombinant anticoagulant polypeptides were expressed in Escherichia coli and purified in our laboratory. Anticoagulant activity was determined by measuring the aPTT and PT.
For the aPTT assay, 10 μl recombinant protein at various concentrations was mixed with 50 μl fresh normal human plasma, 20 μl aPTT reagent (MDC Hemostasis, Germany) and incubated for 15 mins at 37° C. 20 μl 0.05 mol/L prewarmed CaCl2 was then added to initiate the clotting reaction. The clotting time was measured with the absorbance at 630 nm by using an E1x808 kinetic microtiter reader (BioTek, United States). Each concentration was repeated 3 times. The ratio of the mean aPTT value of each concentration to blank control group is multiples of prolonging the aPTT.

normal human plasma [2] = test: PT assay in normal human plasma; conditions: for PT: normal human plasma
Procedure: as §1
For the PT assay, 10 μl recombinant protein at various concentration was mixed with 45 μl normal human plasma and incubated for 15 mins at 37° C. 45 μl prewarmed PT reagent (MDC Hemostasis, Germany) was then added and the clotting time was measured with the absorbance at 630 nm by using an E1x808 kinetic microtiter reader (BioTek, United States). Each concentration was repeated 3 times.

human fXIa = biological target: T1, human fXIa (Homo sapiens, UniProt P03951); test: Chromogenic assay, fXIa; conditions: for inhibition of the activity of fXIa: 100 nM; for inhibition of the activity of fXIa (in words): 200 nM
T1 construct: Human coagulation factors IIa (thrombin), Xa, XIa, XIIa, EGR-fXa; purchased Haematologic Technologies Inc (United States)
Description: (§2) The recombinant anticoagulant polypeptides in the present invention were expressed in E. coli and purified in our laboratory, of which the activities against coagulation factors were investigated by chromogenic assays. Human coagulation factors IIa (thrombin), Xa, XIa, XIIa, EGR-fXa were products of Haematologic Technologies Inc (United States). Recombinant fVIIa was products of Novo-Nordisk (Denmark). Recombinant soluble tissue factor (sTF) was purchased from Protgen (Beijing, China). The following chromogenic substrates were used for these coagulation factor assays: S2765 for human fXa, S2288 for human fVIIa and fIIa, 52366 for human fXIa and fXIIa, respectively.
(§3) The chromogenic assays were carried out in a total reaction volume of 100 μl in individual wells of a 96-well microtiter plate. 50 μl fIIa, fXa, fXIa, or fXIIa (final concentration: 1 nM) was incubated with 10 μl recombinant anticoagulant polypeptide at various concentrations (or PBS control group) Assays for the detection activity of fVIIa: 50 μl fVIIa+TF (1 μM) and EGR-fXa (final concentration 500 nM) was incubated for 15 mins at 25° C., respectively. After the addition of 40 μl of prewarmed chromogenic substrate to a final concentration of 400 μM, the changes of absorbance at 405 nm were monitored by using an E1x808 kinetic microtiter reader. The data were used to calculate the velocities of response.

human fIIa (thrombin) = biological target: T2, human fIIa (thrombin) (Homo sapiens, UniProt P00734); test: Chromogenic assay, fIIa (thrombin)
T2 construct: Human coagulation factors IIa (thrombin), Xa, XIa, XIIa, EGR-fXa; purchased Haematologic Technologies Inc (United States)
Description: as §2, §3

human fXa = biological target: T3, human fXa (Homo sapiens, UniProt P00742); test: Chromogenic assay, fXa
T3 construct: Human coagulation factors IIa (thrombin), Xa, XIa, XIIa, EGR-fXa; purchased Haematologic Technologies Inc (United States)
Description: as §2, §3

human fXIIa = biological target: T4, human fXIIa (Homo sapiens, UniProt P00748); test: Chromogenic assay, fXIIa
T4 construct: Human coagulation factors IIa (thrombin), Xa, XIa, XIIa, EGR-fXa; purchased Haematologic Technologies Inc (United States)
T4 sequence (P00748 373-615 limits assumed): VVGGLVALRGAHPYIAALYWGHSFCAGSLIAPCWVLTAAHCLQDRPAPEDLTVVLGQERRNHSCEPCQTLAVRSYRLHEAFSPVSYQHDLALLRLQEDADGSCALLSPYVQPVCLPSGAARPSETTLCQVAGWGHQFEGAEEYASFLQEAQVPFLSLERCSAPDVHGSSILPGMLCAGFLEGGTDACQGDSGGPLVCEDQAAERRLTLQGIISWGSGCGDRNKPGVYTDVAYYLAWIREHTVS
T4 sequence (P00748 20-372 limits assumed): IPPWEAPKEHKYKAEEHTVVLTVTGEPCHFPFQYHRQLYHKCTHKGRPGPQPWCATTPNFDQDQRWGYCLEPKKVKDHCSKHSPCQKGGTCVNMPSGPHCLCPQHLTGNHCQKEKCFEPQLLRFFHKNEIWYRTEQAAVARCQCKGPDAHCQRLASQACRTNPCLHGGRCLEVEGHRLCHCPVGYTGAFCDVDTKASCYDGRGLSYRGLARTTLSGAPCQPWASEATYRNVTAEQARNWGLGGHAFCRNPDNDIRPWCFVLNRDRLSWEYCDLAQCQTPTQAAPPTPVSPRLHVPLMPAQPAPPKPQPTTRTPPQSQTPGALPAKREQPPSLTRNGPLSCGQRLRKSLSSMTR
Description: as §2, §3

fVIIa/TF = biological target: T5, fVIIa/TF (Homo sapiens, UniProt P08709); test: Chromogenic assay, fVIIa/TF
T5 construct: Recombinant fVIIa was products of Novo-Nordisk (Denmark); purchased Novo-Nordisk (Denmark) for fVIIa; Protgen (Beijing, China) for sTF; Haematologic Technologies Inc for EGR-fXa
Description: as §2, §3

T3 sequence (P00742 41-179 limits assumed): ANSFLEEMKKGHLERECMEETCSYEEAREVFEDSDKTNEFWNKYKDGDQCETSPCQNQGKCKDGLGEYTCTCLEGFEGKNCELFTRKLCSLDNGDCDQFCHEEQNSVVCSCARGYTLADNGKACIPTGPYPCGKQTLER
T3 sequence (P00742 235-488 limits assumed): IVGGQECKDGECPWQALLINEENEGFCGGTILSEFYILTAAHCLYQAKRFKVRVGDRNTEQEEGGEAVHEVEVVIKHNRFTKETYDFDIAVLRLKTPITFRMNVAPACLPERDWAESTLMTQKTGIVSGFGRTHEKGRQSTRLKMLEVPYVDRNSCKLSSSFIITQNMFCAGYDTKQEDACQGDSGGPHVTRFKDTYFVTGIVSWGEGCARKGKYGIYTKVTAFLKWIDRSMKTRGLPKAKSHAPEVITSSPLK
T5 sequence (P08709 61-212 limits assumed): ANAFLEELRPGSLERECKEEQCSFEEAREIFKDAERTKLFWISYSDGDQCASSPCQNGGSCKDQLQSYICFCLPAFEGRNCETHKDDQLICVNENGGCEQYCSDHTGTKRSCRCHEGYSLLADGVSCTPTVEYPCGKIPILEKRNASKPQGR
T5 sequence (P08709 213-466 limits assumed): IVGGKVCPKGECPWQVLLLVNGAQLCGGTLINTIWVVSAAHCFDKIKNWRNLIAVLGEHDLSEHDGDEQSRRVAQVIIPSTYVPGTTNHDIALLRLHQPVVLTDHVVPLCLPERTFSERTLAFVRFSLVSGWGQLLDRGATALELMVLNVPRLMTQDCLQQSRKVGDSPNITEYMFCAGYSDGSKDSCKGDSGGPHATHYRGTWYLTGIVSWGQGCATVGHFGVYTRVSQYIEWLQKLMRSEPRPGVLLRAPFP
T5 sequence (P13726 33-251 partner limits assumed): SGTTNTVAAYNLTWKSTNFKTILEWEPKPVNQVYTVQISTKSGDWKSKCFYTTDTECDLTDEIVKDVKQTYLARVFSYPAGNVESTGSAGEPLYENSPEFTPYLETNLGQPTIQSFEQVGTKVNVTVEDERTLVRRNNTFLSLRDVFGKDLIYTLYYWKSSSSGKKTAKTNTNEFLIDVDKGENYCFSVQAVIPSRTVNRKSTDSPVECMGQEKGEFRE
T1 sequence (P03951 19-387 limits assumed): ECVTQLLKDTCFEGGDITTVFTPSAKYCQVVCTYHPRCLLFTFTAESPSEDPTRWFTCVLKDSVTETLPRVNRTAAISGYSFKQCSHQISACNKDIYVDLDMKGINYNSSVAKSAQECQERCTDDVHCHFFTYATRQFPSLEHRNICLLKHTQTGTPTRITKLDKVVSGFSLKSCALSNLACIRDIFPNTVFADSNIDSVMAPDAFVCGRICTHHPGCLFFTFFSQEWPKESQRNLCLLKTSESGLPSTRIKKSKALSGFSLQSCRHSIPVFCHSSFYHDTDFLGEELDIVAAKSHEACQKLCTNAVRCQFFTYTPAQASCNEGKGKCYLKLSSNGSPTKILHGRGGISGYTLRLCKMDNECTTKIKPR
T1 sequence (P03951 388-625 limits assumed): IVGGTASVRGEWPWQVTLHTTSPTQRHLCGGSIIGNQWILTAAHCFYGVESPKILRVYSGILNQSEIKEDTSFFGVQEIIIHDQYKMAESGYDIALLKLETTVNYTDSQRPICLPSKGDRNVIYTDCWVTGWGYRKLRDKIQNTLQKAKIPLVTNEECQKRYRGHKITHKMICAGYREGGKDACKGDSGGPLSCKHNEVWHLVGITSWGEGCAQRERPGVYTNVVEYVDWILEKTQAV

Molecule	prolongation of aPTT (in words) (normal human plasma [1])	aPTT (normal human plasma [1]; 100 nM)	multiples of prolonging aPTT (normal human plasma [1]; 100 nM)	aPTT (normal human plasma [1]; 500 nM)	multiples of prolonging aPTT (normal human plasma [1]; 500 nM)	prolongation of PT (in words) (normal human plasma [2]; 100 nM)	PT (normal human plasma [2]; 100 nM)	prolongation of PT (normal human plasma [2]; 500 nM)	PT (normal human plasma [2]; 500 nM)	inhibition of the activity of fXIa (human fXIa)	effect on fIIa activity (in words) (human fIIa (thrombin); 100 nM)	effect on fXa activity (in words) (human fXa; 100 nM)	effect on fXIIa activity (in words) (human fXIIa; 100 nM)	effect on fVIIa/TF activity (in words) (fVIIa/TF; 100 nM)	prolongation of PT (in words) (normal human plasma [2]; 100 nM and 500 nM)	inhibition of the activity of fXIa (in words) (human fXIa)	effect on fIIa activity (in words) (human fIIa (thrombin); 200 nM)	effect on fXa activity (in words) (human fXa; 200 nM)	effect on fXIIa activity (in words) (human fXIIa; 200 nM)	effect on fVIIa/TF activity (in words) (fVIIa/TF; 200 nM)	also measured
B1	significantly prolong aPTT	80.8 ± 3.2 s	2.01	235.3 ± 5.4 s	5.87	almost couldn't prolong PT	13.0 ± 0.7 s	less than 1.6 times	19.6 ± 0.9 s	more than 90%	without affecting	without affecting	without affecting	without affecting	–	–	–	–	–	–	inhibition of the activity of fVIIa/TF (fVIIa/TF; 200 nM): about 15%
B2	significantly prolong aPTT	80.2 ± 5.1 s	2.0	221.8 ± 6.3 s	5.53	–	11.7 ± 1.1 s	–	12.6 ± 0.5 s	more than 90%	without affecting	without affecting	without affecting	without affecting	couldn't prolong PT	almost completely inhibited	without affecting	without affecting	without affecting	without affecting	–
B3	significantly prolong aPTT	78.7 ± 3.7 s	1.96	233.3 ± 4.5 s	5.82	–	12.4 ± 0.9 s	–	11.6 ± 0.3 s	more than 90%	without affecting	without affecting	without affecting	without affecting	couldn't prolong PT	almost completely inhibited	without affecting	without affecting	without affecting	without affecting	–
B4	significantly prolong aPTT	79.5 ± 3.1 s	1.98	215.4 ± 5.6 s	5.37	–	12.4 ± 0.9 s	–	12.6 ± 0.4 s	more than 90%	without affecting	without affecting	without affecting	without affecting	couldn't prolong PT	almost completely inhibited	without affecting	without affecting	without affecting	without affecting	–
B5	significantly prolong aPTT	79.7 ± 2.9 s	1.99	238.6 ± 8.1 s	5.95	almost couldn't prolong PT	12.8 ± 0.7 s	less than 1.6 times	17.6 ± 0.6 s	more than 90%	without affecting	without affecting	without affecting	without affecting	–	–	–	–	–	–	inhibition of the activity of fVIIa/TF (fVIIa/TF; 200 nM): about 15%
